Tested on: MS2 coat protein
Experiment: apparent KD of MS2 coat protein; designed switch direction (-1 OFF switch, 1 ON switch): -1; higher = weaker reporter binding
Procedure, shortened: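 For each design, the apparent KD is the median over clusters of curves fitted to normalised cluster fluorescence. Clusters held RNA switches with common flanks, transcribed on Illumina chips by stalled E. coli RNA polymerase. These were titrated with SNAP-549-labelled MS2 coat protein, doubling from 0.7 or 1.5 nM to 3 µM, without input, with 200 uM small-molecule ligand, or with an oligonucleotide input.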

[1] = Eterna round: R95, input ligand: FMN 200 uM
[2] = Eterna round: R95, input ligand: microRNA oligo, concentration not stated
[3] = Eterna round: R95, input ligand: none
[4] = input ligand: microRNA oligo, concentration not stated

Question: Which “apparent KD of MS2 coat protein” value [1] does the source give for “CGGAGCAGAGGGAGAUCCAACAUGAGGAUCACCCAUGUCUCACAAGCUUUUUGCUCGUCUUAUUGUACCUUGGUACU [JL ViennaUCT Edcesobi mod 8] (puzzle: Sensor v3, turn-off variant 1)” here?
Answer: 155 nM

Question: What about the “apparent KD of MS2 coat protein” value [2] of the same sequence?
Answer: 9.75 nM

Question: What about the “apparent KD of MS2 coat protein” value [3] of the same sequence?
Answer: 54.6 nM

Question: What does the source list for “GCCCGUGGGCAAGGAUAUCCUACGCUGUUCUGGUUCGUGUCUGUCACAUGAGGAUCACCCAUGUGGGAGAAGGUGCAUUUGGGU [Design 55] (Eterna round: R96, puzzle: Exclusion NG 2)”?
Answer: apparent KD of MS2 coat protein (input ligand: FMN 200 uM): 14.1 nM; apparent KD of MS2 coat protein [4]: 11.1 nM; apparent KD of MS2 coat protein (input ligand: none): 17.3 nM

Question: “CUGUUUUCCGCAGGAUAUGCUCCUCCAUUACUAGCAGAAGGGCGUUGAACAUGAGGAUCACCCAUGUAUGUAAUUGCUUAUUGC [JR_ExcNG1_Sub072] (Eterna round: R96, puzzle: Exclusion NG 1)” was tested. Which “apparent KD of MS2 coat protein” value (input ligand: FMN 200 uM) did it give?
Answer: 19.2 nM

Question: And the “apparent KD of MS2 coat protein” value [4]?
Answer: 14.6 nM

Question: What about the “apparent KD of MS2 coat protein” value (input ligand: none) of the same sequence?
Answer: 19.4 nM

Question: For “AAGCUGAAGUGCCCGUCUUACAUGAGGAUCACCCAUGUUUUGCUGAAGCGAAUACUCGCAUUAGCAAGUGAGGUCCA [Eternabot (Original) Solution 9] (Eterna round: R97, puzzle: Sensor, turn-off variant 1)”, which “apparent KD of MS2 coat protein” value (input ligand: FMN 200 uM) is on record?
Answer: 68.2 nM

Question: And the “apparent KD of MS2 coat protein” value (input ligand: none)?
Answer: 53.9 nM

Question: Which results are given for “AAGAAACAUGAGGAUCACCCAUGUGAGGAUAUGAAAAAGAAAAGAAAAGAAAGAAGUUUCAGAAGGCACAAAGG [salish99-ex1_r3_024] (puzzle: Exclusion 1)”?
Answer: apparent KD of MS2 coat protein [1]: 83.8 nM; apparent KD of MS2 coat protein [2]: 41.2 nM; apparent KD of MS2 coat protein [3]: 44.9 nM

Question: How did the “apparent KD of MS2 coat protein” value (input ligand: FMN 200 uM) turn out when “AAGAAUUACAUGAGGAUCACCCAUGUAGAGUGGGAAGAGAGAUAGGAUAUGAUGUGAGAAUCAUAUCAGAAGGAUCGAGACUCA [AK ExNG3-2] (Eterna round: R96, puzzle: Exclusion NG 3)” was run?
Answer: 144 nM

Question: And the “apparent KD of MS2 coat protein” value [4]?
Answer: 105 nM

Question: And the “apparent KD of MS2 coat protein” value (input ligand: none)?
Answer: 138 nM

Question: What does the source list for “CCUGUUCGGGUUGGUUUGGGCGGGACAUGAGGAUCACCCAUGUAGGAUAUUUUGGCUGCCGGUCGGGAGAAGGACAUGCUUGGG [-22.4, -21.3 kcal, 17% A] (Eterna round: R96, puzzle: Exclusion NG 3)”?
Answer: apparent KD of MS2 coat protein (input ligand: FMN 200 uM): 135 nM; apparent KD of MS2 coat protein [4]: 61.3 nM; apparent KD of MS2 coat protein (input ligand: none): 98.3 nM

Question: “CUUUUGUGAGGAUAUUAGUAGUAAAUAAAUAAAAUUUCUACUGAGAAGGCACAUGAGGAUCACCCAUGUUCCUC [salish99_ex4_r3_061] (puzzle: Exclusion 4)” was tested. Which “apparent KD of MS2 coat protein” value [2] did it give?
Answer: 33.2 nM

Question: With “UUGUUGUGUGUAGGAUAUGCGUGUUAUUAUUAUGCAGAAGGACAUGAGGAUCACCCAUGUGUAUUGUUAUUAUAUAUUAUAUAU [Title] (Eterna round: R96, puzzle: Exclusion NG 1)” as the sequence, how does the “apparent KD of MS2 coat protein” value [4] read?
Answer: 15.6 nM

Question: For “UUGCUUUCUUAGUACUCUACAAGUUUUUUGUUCGUUUUAACAUGAGGAUCACCCAUGUCUAGUGGAUCUGAUCGGGU [JL ViennaUCT Isreen mod 6] (puzzle: Sensor v3, turn-off variant 2)”, which “apparent KD of MS2 coat protein” value [1] is on record?
Answer: 146 nM

Question: And the “apparent KD of MS2 coat protein” value [2]?
Answer: 263 nM

Question: And the “apparent KD of MS2 coat protein” value [3]?
Answer: 173 nM

Question: How did the “apparent KD of MS2 coat protein” value (input ligand: FMN 200 uM) turn out when “AUUAUGUGAGGAUAUUAGUAGUAAAUGAAUAAAAUUAUUACUGAGAAGGCACAUGAGGAUCACCCAUGUUCCUU [Mat - Exclusion 4 - Eli Mod - D6] (Eterna round: R97, puzzle: Exclusion 4)” was run?
Answer: 155 nM

Question: And the “apparent KD of MS2 coat protein” value (input ligand: none)?
Answer: 18.1 nM

Question: “AAACGGCGGAUCGUGGCUUUUUGCUCGUCUUGUGCUACAACAUGAGGAUCACCCAUGUAGAGGUGAUCCGUUGUAAA [Grok-var2-18 mod JAL] (puzzle: Sensor v3, turn-off variant 2)” was tested. Which “apparent KD of MS2 coat protein” value [1] did it give?
Answer: 28 nM

Question: What about the “apparent KD of MS2 coat protein” value [2] of the same sequence?
Answer: 17.1 nM

Question: What about the “apparent KD of MS2 coat protein” value [3] of the same sequence?
Answer: 38.3 nM

Question: How did the “apparent KD of MS2 coat protein” value [2] turn out when “AAUAAGUGAGGAUAUGCGUCUGGUCCCGGGAGGGCUAUAUAACAUGAGGAUCACCCAUGUAGAAGGCACAAUAA [Excls2IV] (puzzle: Exclusion 2)” was run?
Answer: 15.2 nM

Question: Which “apparent KD of MS2 coat protein” value (input ligand: FMN 200 uM) does the source give for “GAGCUGAACUCAGGAUAUUGCGAGUCUUGGGUGACAGCUCUGACAUGAGGAUCACCCAUGUACUCCGAGAAGGGAGGCCGGUAA [Zainve] (Eterna round: R96, puzzle: Exclusion NG 2)” here?
Answer: 125 nM

Question: What about the “apparent KD of MS2 coat protein” value [4] of the same sequence?
Answer: 113 nM

Question: What about the “apparent KD of MS2 coat protein” value (input ligand: none) of the same sequence?
Answer: 185 nM

Question: What does the source list for “AAUAACAAGCAAGAUCCUAACAUGAGGAUCACCCAUGUGCUCGUCUUGUAAAGUACUAUCACGAAAGUGAUAGUACA [Sensor 3, v1 - 48] (Eterna round: R96, puzzle: Sensor v3, turn-off variant 1)”?
Answer: apparent KD of MS2 coat protein (input ligand: FMN 200 uM): 22.3 nM; apparent KD of MS2 coat protein [4]: 437 nM; apparent KD of MS2 coat protein (input ligand: none): 25.5 nM

Question: With “CAGUACUGAGGAUAUACAUGAGGAUCACCCAUGUUCUUCAGCUAGGAUACUAGCAAAGGUAGAAGGCAGUACUG [Mat - Exclusion 3 - Eli Mod - D28] (Eterna round: R97, puzzle: Exclusion 3)” as the sequence, how does the “apparent KD of MS2 coat protein” value (input ligand: FMN 200 uM) read?
Answer: 611 nM

Question: What about the “apparent KD of MS2 coat protein” value (input ligand: none) of the same sequence?
Answer: 30.1 nM

Question: Which results are given for “ACGAAACAUGAGGAUCACCCAUGUGAGGAUAUGUAAAGACUAGACAAAGAACAGAAAAACAGAAGGCACACAGA [JR_Exclusion1_Sub002] (puzzle: Exclusion 1)”?
Answer: apparent KD of MS2 coat protein [1]: 28 nM; apparent KD of MS2 coat protein [2]: 19.7 nM; apparent KD of MS2 coat protein [3]: 26.7 nM

Question: With “AGUAACCGUCACGAAAGUGAUGGUUACGCAAGCAAAUGUACAUGAGGAUCACCCAUGUCCUCAUUUGCUCGUCUUAU [Sensor 3 - 43] (puzzle: Sensor v3, turn-off variant 2)” as the sequence, how does the “apparent KD of MS2 coat protein” value [1] read?
Answer: 19.6 nM

Question: What about the “apparent KD of MS2 coat protein” value [2] of the same sequence?
Answer: 362 nM

Question: What about the “apparent KD of MS2 coat protein” value [3] of the same sequence?
Answer: 17.7 nM

Question: “AGCCUGGGUUCGCCCAGGUACAUGAGGAUCACCCAUGUCAUGGGUACUUGUGUUGGUAGGCAGUGUGCUCGUCUUAU [Cac Sensor turnoff v1 sub10] (Eterna round: R97, puzzle: Sensor, turn-off variant 1)” was tested. Which “apparent KD of MS2 coat protein” value (input ligand: FMN 200 uM) did it give?
Answer: 719 nM

Question: What about the “apparent KD of MS2 coat protein” value (input ligand: none) of the same sequence?
Answer: 1050 nM

Question: For “AUUUAAUUUAAUAAGAUCACAUGAGGAUCACCCAUGUAUAUAUAGGAUAUCAGCUCGAUUAGAGCUGAGAAGGAUAUAUACAUG [ExNG3/8-A1] (Eterna round: R96, puzzle: Exclusion NG 3)”, which “apparent KD of MS2 coat protein” value (input ligand: FMN 200 uM) is on record?
Answer: 48.9 nM

Question: What about the “apparent KD of MS2 coat protein” value [4] of the same sequence?
Answer: 21.6 nM

Question: And the “apparent KD of MS2 coat protein” value (input ligand: none)?
Answer: 38.1 nM

Question: Which “apparent KD of MS2 coat protein” value (input ligand: FMN 200 uM) does the source give for “AAUUUACAUGAGGAUCACCCAUGUGAGGAUAUAUGCAAAUAAUUUUUAUUAAUAAAGCAUAGAAGGCGCGUGAU [JR_Exc1_Sub042] (Eterna round: R97, puzzle: Exclusion 1)” here?
Answer: 188 nM

Question: What about the “apparent KD of MS2 coat protein” value (input ligand: none) of the same sequence?
Answer: 73 nM

Question: “CCCAUGUCAGGAUAUUAGAUACUGCCGCAAAACAAAGGCAUUGAGAAGGGACAUGAGGAUCACCCAUGUAAAAC [Soraxerila] (Eterna round: R97, puzzle: Exclusion 4)” was tested. Which “apparent KD of MS2 coat protein” value (input ligand: FMN 200 uM) did it give?
Answer: 112 nM

Question: And the “apparent KD of MS2 coat protein” value (input ligand: none)?
Answer: 326 nM

Question: What does the source list for “UUUUUGUGAGGAUAUGCGUAGUAGAACAAUAGUACUACUACGUAGAAGGCACAUGAGGAUCACCCAUGUUCCUC [Fiskers Ex 4 Super stable 44 mod 15] (Eterna round: R96, puzzle: Exclusion 4)”?
Answer: apparent KD of MS2 coat protein (input ligand: FMN 200 uM): 339 nM; apparent KD of MS2 coat protein [4]: 34.7 nM; apparent KD of MS2 coat protein (input ligand: none): 43.1 nM

Question: With “GAAGUAAAUGCAGGAUAUACCCACACAUGAGGAUCACCCAUGUAGUCUACUACGGUGUUCUCACGGUAGAAGGGCACAGCCGGA [Eternabot solution 31] (Eterna round: R96, puzzle: Exclusion NG 2)” as the sequence, how does the “apparent KD of MS2 coat protein” value (input ligand: FMN 200 uM) read?
Answer: 377 nM

Question: What about the “apparent KD of MS2 coat protein” value [4] of the same sequence?
Answer: 267 nM

Question: And the “apparent KD of MS2 coat protein” value (input ligand: none)?
Answer: 256 nM

— the supplement of paper PMC9170038
